We go through 31 sequences from the supplement of paper PMC9170038.

The test system of the series is MS2 coat protein. Briefly: apparent KD of MS2 coat protein; designed switch direction (-1 OFF switch, 1 ON switch): -1; higher = weaker reporter binding. The method, boiled down: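 An oligonucleotide input, 200 uM small-molecule ligand, or no input was present during titration of SNAP-549-labelled MS2 coat protein, which was doubled from 0.7 or 1.5 nM to 3 µM. Designed RNA switches had been transcribed on Illumina chips by stalled E. coli RNA polymerase. Apparent KD per design is the median over clusters of curves fitted to normalised cluster fluorescence.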

[1] abbreviates: input ligand: microRNA oligo, concentration not stated.
The mark [2] stands for this setting: Eterna round: R95, input ligand: FMN 200 uM.
[3] abbreviates: Eterna round: R95, input ligand: microRNA oligo, concentration not stated.
Where [4] appears, read: Eterna round: R95, input ligand: none.

Regarding “UACAUGAGGAUCACCCAUGUUUUGUCGUGUAUGGUAUUUAUCUAGGAUAUCAAUCUAUUAAUUUAUGAGAAGGAGAAUAUUAAU [JMF's solution 52] (Eterna round: R96, puzzle: Exclusion NG 3)”, the “apparent KD of MS2 coat protein” value under setting [1] was determined as 28.8 nM.
For “UACAUGAGGAUCACCCAUGUUUUGUCGUGUAUGGUAUUUAUCUAGGAUAUCAAUUUAGUAAUUUAUGAGAAGGAGAAUAUUAAU [JMF's solution 73] (Eterna round: R96, puzzle: Exclusion NG 3)”, the “apparent KD of MS2 coat protein” value was found to be 37.5 nM (input ligand: FMN 200 uM), 31.4 nM under setting [1] and 40.8 nM (input ligand: none).
As for “UACAUGAGGAUCACCCAUGUUUUGUCGUGUAUGGUAUUUAUCUAGGAUAUCAAUUUAUUUAGUUAUGAGAAGGAGAAUAUUAAU [JMF's solution 22] (Eterna round: R96, puzzle: Exclusion NG 3)”, the “apparent KD of MS2 coat protein” value reads like this: (input ligand: FMN 200 uM) 46.8 nM; under setting [1], 27.7 nM; (input ligand: none) 37.9 nM.
The matching figures for “UACAUGAGGAUCACCCAUGUUUUGUCGUGUAUGGUAUUUAUCUAGGAUAUCAUUAUAUUUAGUUAUGAGAAGGAGAAUAUUAAU [JMF's solution 82] (Eterna round: R96, puzzle: Exclusion NG 3)”: 28.1 nM, 23.6 nM and 44.6 nM.
With “UACCGGCGGACCGAAGCUUUUUGCUUGUUUUAUACUACAACAUGAGGAUCACCCAUGUGGUGGUGGUCCGUUGUAGU [JL ViennaUCT Bitein mod 1] (puzzle: Sensor v3, turn-off variant 2)”, the “apparent KD of MS2 coat protein” value is, setting by setting: under setting [2], 63.9 nM; under setting [3], 16.7 nM; under setting [4], 58.6 nM.
As for “UACCUGAGGCAAAGCUUUAGGUAAACAUGAGGAUCACCCAUGUAGGAUAUGGUAGGCAAAGCUUACCAGAAGGACAUGAUAAUU [Mat - Exclusion NG 3 - Mod of JL - D35] (Eterna round: R96, puzzle: Exclusion NG 3)”, the “apparent KD of MS2 coat protein” value turned out to be 544 nM (input ligand: FMN 200 uM), 79.2 nM under setting [1] and 80.4 nM (input ligand: none).
Turning to “UACGGGUCAGGAUAUGCGAGAGAGUGGGAAAUAGGAAGGUAGCAGAAGGGACAUGAGGAUCACCCAUGUGAGGC [JR_Exclu4_Sub099] (puzzle: Exclusion 4)”, the “apparent KD of MS2 coat protein” value under setting [3] was found to be 23.8 nM.
“UAGAAACAUGAGGAUCACCCAUGUGAGGAUAUGGCCCGCCCGGCGUGAGCUGGUUUUGUCAGAAGGCGCAUAGG [salish99_ex1_r4_020] (Eterna round: R97, puzzle: Exclusion 1)”: the “apparent KD of MS2 coat protein” value was found to be 115 nM (input ligand: FMN 200 uM) and 71.1 nM (input ligand: none).
For “UAGAAUCGAGGAUAUACAUGAGGAUCACCCAUGUGUGGCCACACGGUGUGGUCGUCAGGUAGAAGGCGAUUACA [Exclusion 3 - Mod of Jieux's Gilly Gone Silly 23 v.3] (puzzle: Exclusion 3)”, the “apparent KD of MS2 coat protein” value runs as follows: under setting [2], 19.9 nM; under setting [3], 22.8 nM; under setting [4], 53.2 nM.
For “UAGAUACAUGAGGAUCACCCAUGUGAGGAUAUGAGAAUUAGUUUAAAUGAAUUAAUUUUCAGAAGGCACGGAGG [JR_Ex1_Sub053] (Eterna round: R97, puzzle: Exclusion 1)”, the “apparent KD of MS2 coat protein” value is, setting by setting: (input ligand: FMN 200 uM) 180 nM; (input ligand: none) 123 nM.
“UAGAUACAUGAGGAUCACCCAUGUGAGGAUAUGAGAAUUAUAUUAAAUGAAUUAAUUUUCAGAAGGCACAAAGG [JR_Ex1_Sub052] (Eterna round: R97, puzzle: Exclusion 1)”: the “apparent KD of MS2 coat protein” value reads like this: (input ligand: FMN 200 uM) 177 nM; (input ligand: none) 166 nM.
The matching figures for “UAGCAAUGAGAUGGGUUCCACAUGAGGAUCACCCAUGUCCAAGCUCAGAGCUCGUCUUAUUUGAGAUACUUCACUGU [Eternabot (L2) Solution 50] (Eterna round: R97, puzzle: Sensor, turn-off variant 1)”: 41.1 nM and 43.4 nM.
Consider “UAGCAUUGCCAAAGGUAGUGCAAAACAUGAGGAUCACCCAUGUAGGAUAUGGUAGGCAAAGCUUACCAGAAGGACAUGAUAAAU [Mat - Exclusion NG 3 - Mod of JL - D18] (Eterna round: R96, puzzle: Exclusion NG 3)”, for which the “apparent KD of MS2 coat protein” value was 327 nM (input ligand: FMN 200 uM), 39.7 nM under setting [1] and 54.5 nM (input ligand: none).
On to “UAGGACAAAGGAUAUACGUGUUAUGAUCGGGAUAACAAAAGACAUGAGGAUCACCCAUGUAGAAGGUUGCUUGA [EX2 B.25] (Eterna round: R97, puzzle: Exclusion 2)”, for which the “apparent KD of MS2 coat protein” value turned out to be 26.2 nM (input ligand: FMN 200 uM) and 17.8 nM (input ligand: none).
The matching figures for “UAGGCUUUAGGAUAUGCGUGUUGUAGUCGGCGAUGUGGUUCACAUGAGGAUCACCCAUGUAGAAGGAAAGUUUA [-17.2, -17 kcal, 26% A] (Eterna round: R97, puzzle: Exclusion 2)”: 244 nM and 104 nM.
Turning to “UAUAAGCUAGGAUAUCGCUGAGUAAACAUGAGGAUCACCCAUGUGGACCAUGAUUGCCACCGAGAAGGAGCGGGAA [Aonat] (puzzle: Exclusion 5)”, the “apparent KD of MS2 coat protein” value was 119 nM under setting [2], 53.7 nM under setting [3] and 56.8 nM under setting [4].
For the sequence “UAUAAUCGAGGAUAUACAUGAGGAUCACCCAUGUGUUGCCGCGUGAUGUGUUUGUCAGGUAGAAGGCGAUUAUA [Exclusion 3 - Mod of Jieux's Gilly Gone Silly 23 v.9] (puzzle: Exclusion 3)”, under setting [3], the “apparent KD of MS2 coat protein” value came out at 153 nM.
On to “UAUAGUUCAGGAUAUGAUGAAUUAAACAUGAGGAUCACCCAUGUAGAUCCUGAAUUAACAUCAGAAGGGAAUAUUU [JL-ex5-4.49 Brourd mod] (Eterna round: R97, puzzle: Exclusion 5)”, for which the “apparent KD of MS2 coat protein” value amounted to 17.4 nM (input ligand: FMN 200 uM) and 14.3 nM (input ligand: none).
Take “UAUAUAUAGUAAGGAUAUAUAUUUAUUUUAUAAAUAGAAGGUACAGACAUGAGGAUCACCCAUGUUAUAAUAUGGACAUGUGGA [JMF's Solution 1] (Eterna round: R96, puzzle: Exclusion NG 1)”: under setting [1], the “apparent KD of MS2 coat protein” value came out at 45.3 nM.
Same read-out and setting: then “UAUAUAUAGUAAGGAUAUAUAUUUUUUUUAUAAAUAGAAGGUACAGACAUGAGGAUCACCCAUGUUAUAAUAUGGACAUGUGGA [JMF's Solution 2] (Eterna round: R96, puzzle: Exclusion NG 1)”, with 77.4 nM; and “UAUAUAUAGUAAGGAUAUGUAAUUGUUUUAUAAACAGAAGGUACUGACAUGAGGAUCACCCAUGUUUUAGUGUGGGCAUGUAGA [JMF's solution 33] (Eterna round: R96, puzzle: Exclusion NG 1)”, with 45.7 nM; and “UAUAUAUAGUAAGGAUAUGUAUAUAUAUUAUAAACAGAAGGUACUGACAUGAGGAUCACCCAUGUUUUAGUGUGGGCAUGUAGA [JMF's solution 58] (Eterna round: R96, puzzle: Exclusion NG 1)”, with 53.8 nM.
The same measure, in the same setting: as for “UAUAUAUAGUAAGGAUAUGUAUAUAUUUUAGAAACAGAAGGUACUGACAUGAGGAUCACCCAUGUUUUAGUGUGGGCAUGUAGA [JMF's solution 67] (Eterna round: R96, puzzle: Exclusion NG 1)”, the figure is 52.7 nM.
As for “UAUAUAUAGUAAGGAUAUGUAUAUAUUUUAUAGACAGAAGGUACUGACAUGAGGAUCACCCAUGUUUUAGUGUGGGCAUGUAGA [JMF's solution 72] (Eterna round: R96, puzzle: Exclusion NG 1)”, the “apparent KD of MS2 coat protein” value (input ligand: FMN 200 uM) was found to be 105 nM, the “apparent KD of MS2 coat protein” value under setting [1] is 50.4 nM and the “apparent KD of MS2 coat protein” value (input ligand: none) was determined as 50.5 nM.
For the sequence “UAUAUAUAGUAAGGAUAUGUAUUAAUUAUAUAAACAGAAGGUACUGACAUGAGGAUCACCCAUGUUUUAGUGUGGGCAUGUAGA [JMF's solution 80] (Eterna round: R96, puzzle: Exclusion NG 1)”, the “apparent KD of MS2 coat protein” value under setting [1] worked out at 65.8 nM.
Consider “UAUAUAUAGUAAGGAUAUGUAUUAGUUUUAUAAACAGAAGGUACUGACAUGAGGAUCACCCAUGUUUUAGUGUGGGCAUGUAGA [JMF's solution 74] (Eterna round: R96, puzzle: Exclusion NG 1)”, for which the “apparent KD of MS2 coat protein” value under setting [1] was determined as 76.6 nM.
Regarding “UAUAUAUAGUAAGGAUAUGUAUUUAUUUUAGAAACAGAAGGUACUGACAUGAGGAUCACCCAUGUUUUAGUGUGGGCAUGUAGA [JMF's solution 23] (Eterna round: R96, puzzle: Exclusion NG 1)”, the “apparent KD of MS2 coat protein” value under setting [1] was determined as 62 nM.
Consider “UAUAUAUAGUAAGGAUAUGUAUUUAUUUUAUAAACAGAAGGUACUGACAUGAGGAUCACCCAUGUUUUAGUGUGGGCAUGUAGA [JMF's solution 4] (Eterna round: R96, puzzle: Exclusion NG 1)”, for which the “apparent KD of MS2 coat protein” value under setting [1] came to 67 nM.
On to “UAUCAUCAUGUAGGAUAUGCGUGGCGAAGCUAUGCAGAAGGACAUGAGGAUCACCCAUGUUCUUGCGUCUGCGUACAGAUGCAA [Mat - Exclusion NG 1 - Mod of JL - D71] (Eterna round: R96, puzzle: Exclusion NG 1)”, for which the “apparent KD of MS2 coat protein” value was 218 nM (input ligand: FMN 200 uM), 38 nM under setting [1] and 66.7 nM (input ligand: none).
Regarding “UAUCCACAUGAGGAUCACCCAUGUCAGGAUAUGCACUAUGGGCCAAGUGGUCCAAGGAGCAGAAGGGACGAGAG [Eternabot (L2) Solution 25] (Eterna round: R97, puzzle: Exclusion 1)”, the “apparent KD of MS2 coat protein” value amounted to 28.9 nM (input ligand: FMN 200 uM) and 15.2 nM (input ligand: none).
Turning to “UAUCGGGACUGAGGAUAUUCGUUCGAGCACGAAGAAGAAGGUAGUGUCAGGGACAUGAGGAUCACCCAUGUGAUUUCAGUCCCA [JL ViennaUCT Erinle mod 6] (Eterna round: R96, puzzle: Exclusion NG 1)”, the “apparent KD of MS2 coat protein” value worked out at 91.4 nM (input ligand: FMN 200 uM), 102 nM under setting [1] and 133 nM (input ligand: none).
